The text below walks through data of the supplement of paper PMC9170038.

For the series, the system named is MS2 coat protein. Description: apparent KD of MS2 coat protein; designed switch direction (-1 OFF switch, 1 ON switch): -1; higher = weaker reporter binding. In outline:
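The buffer was Tris-HCl pH 7.5 with KCl, MgCl2, BSA, DTT, tRNA and Tween-20. In it, SNAP-549-labelled MS2 coat protein was titrated in doubling steps from 0.7 or 1.5 nM to 3 µM over chip-bound RNA switches transcribed by stalled E. coli RNA polymerase on Illumina chips. Apparent KD is the per-design median over clusters of curve fits to normalised fluorescence.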

The mark [1] stands for this setting: Eterna round: R95, input ligand: microRNA oligo, concentration not stated.
Setting [2] is: input ligand: microRNA oligo, concentration not stated.
Where [3] appears, read: Eterna round: R95, input ligand: FMN 200 uM.
[4] abbreviates: Eterna round: R95, input ligand: none.

“AACUAGGCAGGAUAUACAUGAGGAUCACCCAUGUAAAUUUUUCGUUUAACUUGAAUGUGUAGAAGGGCCAUAAA [Ex3 #52] (Eterna round: R97, puzzle: Exclusion 3)”: the “apparent KD of MS2 coat protein” value (input ligand: FMN 200 uM) is 23.3 nM and the “apparent KD of MS2 coat protein” value (input ligand: none) stood at 24.6 nM.

As for “AACUAGUCAGGAUAUACAUGAGGAUCACCCAUGUAAACUUUUAGUUUAAUUUGAAUGUGUAGAAGGGACAUAAA [Ex3 #43] (Eterna round: R97, puzzle: Exclusion 3)”, the “apparent KD of MS2 coat protein” value is 20.7 nM (input ligand: FMN 200 uM) and 20.3 nM (input ligand: none).

As to “AACUAGUGAGGAUAUACAUGAGGAUCACCCAUGUACGUCGUGGGUAGAAAACAAGUCAGUAGAAGGUGCUAGAC [Ininor] (puzzle: Exclusion 3)”, under setting [1], the “apparent KD of MS2 coat protein” value turned out to be 174 nM.

Consider “AACUCACAUGAGGAUCACCCAUGUGAGGAUAUGAUACUAUGUACUUCGGUACAUAGUAUCAGAAGGCAUGUGGG [Ex1-3: 94] (puzzle: Exclusion 1)”, for which the “apparent KD of MS2 coat protein” value under setting [1] is 49.7 nM.

With “AACUGUACAGGAUAUACAUGAGGAUCACCCAUGUGAGAAUUAAGUGGAGAACCACAAAGUAGAAGGGUACAGGA [Mat - Exclusion 3 - JL mod - D17] (Eterna round: R96, puzzle: Exclusion 3)”, the “apparent KD of MS2 coat protein” value under setting [2] was found to be 38.4 nM.

As to “AACUGUCUAGAGGAUAUGCUGGAUUAAUAUCUGGCAGAAGGUUGGACAUGAGGAUCACCCAUGUAAAUACUACC [Omei Ex6 A7] (Eterna round: R97, puzzle: Exclusion 6)”, the “apparent KD of MS2 coat protein” value reads like this: (input ligand: FMN 200 uM) 33.1 nM; (input ligand: none) 20.3 nM.

“AACUUCUGAGGAUAUACAUAGAUUUACAUGAGGAUCACCCAUGUUCCUCUAUGUAUAAAUGUAGAAGGCAGAAGAG [Mat - Exclusion 5 - JL Mod - D63] (Eterna round: R97, puzzle: Exclusion 5)”: the “apparent KD of MS2 coat protein” value by setting is: (input ligand: FMN 200 uM) 71.3 nM; (input ligand: none) 17.2 nM.

As for “AAGAAACAUGAGGAUCACCCAUGUGAGGAUAUGAAAAAGAAAAGAAAAGAAAGAAGAAUCAGAAGGCACAAAGC [salish99-ex1_r3_090] (Eterna round: R96, puzzle: Exclusion 1)”, the “apparent KD of MS2 coat protein” value (input ligand: FMN 200 uM) turned out to be 24 nM, the “apparent KD of MS2 coat protein” value under setting [2] was determined as 25.3 nM and the “apparent KD of MS2 coat protein” value (input ligand: none) came out at 31.2 nM.

Turning to “AAGAAACAUGAGGAUCACCCAUGUGAGGAUAUGAAAAAGAAAAGAAAAGAAAGAAGAAUCAGAAGGCACAAAGC [salish99-ex1_r3_090] (puzzle: Exclusion 1)”, the “apparent KD of MS2 coat protein” value was determined as 22.5 nM under setting [3], 28.6 nM under setting [1] and 32.1 nM under setting [4].

As for “AAGAAACAUGAGGAUCACCCAUGUGAGGAUAUGAAAAAUAAAAGAAAAGAAAUAAUAAUCAGAAGGCACAAAGG [Mat - Mod of Hog D9] (puzzle: Exclusion 1)”, the “apparent KD of MS2 coat protein” value is, setting by setting: under setting [3], 43 nM; under setting [1], 26.6 nM; under setting [4], 28.9 nM.

On to “AAGAAACAUGAGGAUCACCCAUGUGAGGAUAUGAAAAAUAAAAUAAAAUAAAUAAUAAUCAGAAGGCACAAAGG [Mat - Mod of Hog D7] (puzzle: Exclusion 1)”, for which the “apparent KD of MS2 coat protein” value by setting is: under setting [3], 37.3 nM; under setting [1], 34.1 nM; under setting [4], 42 nM.

For the sequence “AAGAAACAUGAGGAUCACCCAUGUGAGGAUAUGACGAAGAAAAGAAAAGAAAGAAGACUCAGAAGGCACAAAGG [salish99-ex1_r3_076] (puzzle: Exclusion 1)”, the “apparent KD of MS2 coat protein” value under setting [3] stood at 48 nM, the “apparent KD of MS2 coat protein” value under setting [1] worked out at 26.7 nM and the “apparent KD of MS2 coat protein” value under setting [4] was 43.4 nM.

With “AAGAAACAUGAGGAUCACCCAUGUGAGGAUAUGAUCAAGAAAAGAAAAGAAAGAAGACUCAGAAGGCACAAAGG [salish99-ex1_r3_071] (puzzle: Exclusion 1)”, the “apparent KD of MS2 coat protein” value amounted to 162 nM under setting [3], 210 nM under setting [1] and 548 nM under setting [4].

As to “AAGAAACAUGAGGAUCACCCAUGUGAGGAUAUGAUCAAGAAAAGAAAAGAAAGAAGAUUCAGAAGGCACAAAGG [salish99-ex1_r3_056] (puzzle: Exclusion 1)”, the “apparent KD of MS2 coat protein” value by setting is: under setting [3], 124 nM; under setting [1], 160 nM; under setting [4], 362 nM.

On to “AAGACAAUUCUCUAGUGCAACAUGAGGAUCACCCAUGUCAUAGAAGCUUUUUGCUCGUGUUAAGUGACUCAAGAGAG [Eternabot (Original) Solution 41] (Eterna round: R97, puzzle: Sensor, turn-off variant 1)”, for which the “apparent KD of MS2 coat protein” value is, setting by setting: (input ligand: FMN 200 uM) 69.6 nM; (input ligand: none) 64.2 nM.

Take “AAGACUAGAGGAUAUACAUGAGGAUCACCCAUGUAACUGUCAGGUGACUGACGGAAAUGUAGAAGGCUAGUCAA [Mat - Exclusion 3 - JL mod - D81] (Eterna round: R96, puzzle: Exclusion 3)”: the “apparent KD of MS2 coat protein” value reads like this: (input ligand: FMN 200 uM) 54.2 nM; under setting [2], 13.6 nM; (input ligand: none) 16.8 nM.

Take “AAGAGGAAUAUAGGAUAUGAGGCUGAGACGGCGUCAGAAGGGUAUCCAGAGUUACAUGAGGAUCACCCAUGUGGUGAUUUCUAA [Exclusion NG 1 V2 1] (Eterna round: R96, puzzle: Exclusion NG 1)”: the “apparent KD of MS2 coat protein” value was 9.2 nM (input ligand: FMN 200 uM), 5.74 nM under setting [2] and 81.2 nM (input ligand: none).

As to “AAGAGGCGGACAGGAUAUGGGAAAUUGUAAAGACCAGAAGGGUCGGCGAAAAUACAUGAGGAUCACCCAUGUGACUCAUGACCA [AK ExNG1-7.1] (Eterna round: R96, puzzle: Exclusion NG 1)”, the “apparent KD of MS2 coat protein” value runs as follows: (input ligand: FMN 200 uM) 913 nM; under setting [2], 311 nM; (input ligand: none) 290 nM.

On to “AAGAUGAGACAGGAUAUCCACAAAAUCUUGUCAGGAGAAGGGUCUACAUGAGGAUCACCCAUGUGAUUCUUGAA [Inriinvele] (puzzle: Exclusion 6)”, for which the “apparent KD of MS2 coat protein” value reads like this: under setting [3], 19.1 nM; under setting [1], 14.6 nM; under setting [4], 18.1 nM.

On to “AAGAUGUCAGGAUAUUAGUAGUAAAUGAAUAAAAUUAUUACUGAGAAGGGACAUGAGGAUCACCCAUGUGCCUU [Mat - Exclusion 4 - Eli Mod - D10] (Eterna round: R97, puzzle: Exclusion 4)”, for which the “apparent KD of MS2 coat protein” value (input ligand: FMN 200 uM) was 17.5 nM and the “apparent KD of MS2 coat protein” value (input ligand: none) turned out to be 16.6 nM.

“AAGAUUCUCAUGAGCUGGAACAUGAGGAUCACCCAUGUGUGUUGCUUUUUGCUCAAGGAAUCCAUUUCGAUCUUAUA [Eternabot (L1) Solution 43] (Eterna round: R97, puzzle: Sensor, turn-off variant 1)”: the “apparent KD of MS2 coat protein” value is, setting by setting: (input ligand: FMN 200 uM) 62.9 nM; (input ligand: none) 71.8 nM.

Regarding “AAGCAUUGCCAAAGGUAGUGCUUAACAUGAGGAUCACCCAUGUAGGAUAUGGUAGGCAAAGCUUACCAGAAGGACAUGAUAAUU [Mat - Exclusion NG 3 - Mod of JL - D14] (Eterna round: R96, puzzle: Exclusion NG 3)”, the “apparent KD of MS2 coat protein” value is 430 nM (input ligand: FMN 200 uM), 61.5 nM under setting [2] and 70.8 nM (input ligand: none).

For “AAGCCUCAGGUUAGGAUAUACGCCUGGCCGAAGGAGUAGAAGGGACAUGAGGAUCACCCAUGUGGGUUCAAAAG [Atanvege] (puzzle: Brourd's mod of Exclusion 4)”, the “apparent KD of MS2 coat protein” value under setting [3] was 52.5 nM, the “apparent KD of MS2 coat protein” value under setting [1] was determined as 43 nM and the “apparent KD of MS2 coat protein” value under setting [4] stood at 44.9 nM.
